Reference: the nanobody polyreactivity screen of Harvey et al. (2022)

Experiment: yeast display, Sf9 membrane polyspecificity reagent, FACS + sequencing; frameworks hold sequencing errors
How it was run: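 Genes from sorted yeast were amplified by colony PCR, read by MiSeq 2 × 250 sequencing and filtered on CDR length. These cells carried a synthetic nanobody library in Saccharomyces cerevisiae BJ5465 and were sorted by FACS into low and high (top ~1%) gates on anti-HA and streptavidin fluorescence. Polyreactivity is labelled according to the gate of origin.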
With “QVQLVESGGGLVQAGGRLRLSCAASGFTVSYYGMGWSRQAPGKERELVATISSSGSTNYADSVKGRFTISRDNAKNSVYLQMNSLKPEDTAVYYCATDYADAGYYTTFDYWGQGTQVTVSS” the “polyreactivity (PSR sort gate)” value was “high polyreactivity”.
In the case of “QVHLVESGGGLVQAGGSLRLRCAASGLTSTNNAMGWYRQAPGKERELVAAITSGSTTNYADSVKGRFTISRDNAKNTVYLQMNSLNPEDTAVYYCAAQYGVWWRGYYYPEYDYWGEGTQVTVSS”, the “polyreactivity (PSR sort gate)” value is reported as “low polyreactivity”.
With “QVQLLDSGGGLVQAGGSLRLSCAASGSIFGRNAMVWYRQAPGKEREFVATITSRGGRTYYADSVKGRFTISRDNAKNTVYLQMNSLKPEDTAVYYCAADTYISTLKKYRLGDYWGQGTQVTVSS” the “polyreactivity (PSR sort gate)” value was “low polyreactivity”.
With “QVQLVESGGGLVKAGGSLRLSCAASGFTIVYYAMGWYIQAPGKERELVAAISATGGRTYYADSVKGRFTISRDNAKNTVYLQMNSLKPEDTAVYYCATRRRVLYGYDYWGQGTQVTVSS” the “polyreactivity (PSR sort gate)” value was “high polyreactivity”.
For “QVQLVESGGGLVQAGGSLRLSCAASGFTFFVNTMGWYRQAPGKERELVAAISYDGGSTTYADSVKGRFTISRDNAKNTVYLQMNSLKPEDTAVYYCAAEYWAPFDYGTNSGYEYWGQGTQVTVSS”, the “polyreactivity (PSR sort gate)” value was “low polyreactivity”.
In the case of “QVQLVESGGGLVQAGGSLRLSCAASGFILSRYTMGWYRQAPGKERELVATISSGGRTYYADSVKGRFTISRDNAKNTVYLQMNSLKPEDTAVYYCAAAYTYWRIPGNRYLYDYWGQGTQVTVSS”, the “polyreactivity (PSR sort gate)” value is reported as “high polyreactivity”.
In the case of “QVQLQESCGRLVQAGGILRLSCAACGNIFPSAVMGWYRQALGTEREFVATLNSGSNPYYADSVKGRFTISRDNAKNTVYLQLNSLKLEDTAVYYCAAYYKLPAWHTYWGQGTQVTVSS”, the “polyreactivity (PSR sort gate)” value is reported as “low polyreactivity”.
In the case of “QVQLQESGGVLVQAGGSLRLSCAASGSIYDDTYMGWYRQAPGKERELVATIDSGSTTNYADSVKGRITICRDNAKNSVDLQMNTLKPEDTAVYYCAAADSHIDYFDYWGQGTQVTVSS”, the “polyreactivity (PSR sort gate)” value is reported as “low polyreactivity”.
For “QVQLVESGGGLVQAGGSLRLSCAASGRTFWNYAMGWYRQAPGKERELVAVIRFSDVSTYYADSVKGRFTISRDNAKNTVYLQMNSLKPEDTAVYYCAAKGPRRWGSGFDYWGLGTQVTVSS”, the “polyreactivity (PSR sort gate)” value was “low polyreactivity”.
With “QVQLVESGGGLVQAGGSLRLSSAASGGIFWYYTMGWYRQAPGKERELVAAISWSGGRTYYADSVKGRFTISRDNAKNTVYLQMNSLKPEDTAVYYCAATFRGVLGWYHYEYWGQGTQVTVSS” the “polyreactivity (PSR sort gate)” value was “high polyreactivity”.
In the case of “QVQLVESGGGLVQAGGSLRLSCAASGLTLTYYAMGWYRQAPGKERELVAAISSSGGSTYYADSVKGRFTISRDNAKNTVYLQMNSLKPEDTAVYYCAARDWASHTPFDYWGQGTQVTVSS”, the “polyreactivity (PSR sort gate)” value is reported as “high polyreactivity”.
In the case of “QVQLVESGGGLVQAGGSLRFSCAASGSTFKRYTMGWYRQAPGKERELVAAISTSSGSTYYADSVKGRFTISRDNAKNSVYLQMHSLKPEDTAVYYCAAVRLRQTYPKYNYWGQGTQVTVSS”, the “polyreactivity (PSR sort gate)” value is reported as “high polyreactivity”.
For “QVQLVESGGGLVQAGGSLRLSCAASGITFPGYAMGWYRQAPGKERELVAAISTSGGSTYYADSVKGRFTISRDNAKNTVYLQMIRLKPEDTAVYYCAADSFVTSFHWRFDYWGQGTQVTVSS”, the “polyreactivity (PSR sort gate)” value was “low polyreactivity”.
For “QVQLVESGGGLVQAGGSLRLSCAASGSIFKGYAMGWYRQAPGKERELVAAISRTGGSTYYADSVKGRFTISRDYAKNTVYLQMNSLKPEDTAVYYCAAYSASTYDSWGQGTQVTVSS”, the “polyreactivity (PSR sort gate)” value was “high polyreactivity”.
For “QVQLVESGGGLVQAGGSLRLSCAASGSTFYAYAMGWYSQAPGKERELVAAITRSGGSTYYADSVKGRFTISRDNAKNTVYLQMNSLKPEDTDVYYCNKYGYKGGVGYDYWGQGTQVTLSS”, the “polyreactivity (PSR sort gate)” value was “high polyreactivity”.
For “QVQLVESGAGLVQAGGSLRLSCAASGGTLRYYAMGWYRPAPGKEREFVASISRSGGSTYYADSVKGRFTISRYNAKNTVYLQMNSLKPEDTAVYYCAAYWSPGYTTGRGYWGQGTQVTVSS”, the “polyreactivity (PSR sort gate)” value was “high polyreactivity”.
In the case of “QVQLVESGGGVVQAGGSLRLSCAASGRINARYAMGWYRQAPGKERELVAAITSGGGTYYADSVKGRFTISRDNAKNTVYLQMNSLKPEDTAVYYCAARWLSRGYEYYYWGQGTQVTVSS”, the “polyreactivity (PSR sort gate)” value is reported as “high polyreactivity”.
In the case of “QVQLVESGGGLVQAGGSLRLSCAASGSTFVKYDMGWYRQAPGKERELVAAITTTGGSTYYADSVKGRFTISRDNAKNTVYLQMNSLIPEDTAVYYCATLVSASRSRRFGYEYWGQGTQVTVSS”, the “polyreactivity (PSR sort gate)” value is reported as “high polyreactivity”.
For “QVHIVESGGGLDQAGGSLRLSCAASGSIFYRNAMGWYRQAPGKEREMVAAISSDGSTNYADSVKGRFTISRDNAKNTVYLQMNSLKQEDTAVYFCAAQWTQILDYWGQGTQVNVSS”, the “polyreactivity (PSR sort gate)” value was “low polyreactivity”.
For “QVQLVESGGGLVQAGGSLRLSCAASGSTFAFNAMGWYRQAPGKERELVAGITWSSGSTYYADSVKGRFTISRDNAKNTVYLQMNSLKPEDTAVYYCAVSGTRTIWGQGTQVTVSS”, the “polyreactivity (PSR sort gate)” value was “high polyreactivity”.
With “QDQLVESGGGLVQAGGSLRLSCAASGSTFDGYAMGWYRPAPGKERELVADITSGGSTYYADSVKGRFTISRDNAKNTVYLQMNSLKPEDTAVYYCAVEGWWDDYNSRAGEFNYWGQRTQVTVSS” the “polyreactivity (PSR sort gate)” value was “low polyreactivity”.
For “QVQLEESCGGLVQAGGSLRLSCAASGRTFRYYPMGWYRQAPGKERELVAAITTGSSTYYADSVKGRFTISRDNANNTVYLQMNSLKPEDTAVFYCNVFQGTRYGYWGQGTQVTVSS”, the “polyreactivity (PSR sort gate)” value was “low polyreactivity”.
For “QVQLVESGGGLVQAGGSLRLSCAASGSIFATNSMGWYRQAPGKERELVAAISRSGASTYYADSVKGRFTISRDNAKNTVYLQMNSLKPEDTAVYYCNKVLYRDAYHSYCFDYWGQGTQVTVSS”, the “polyreactivity (PSR sort gate)” value was “high polyreactivity”.
With “QVQLVESGGGLVQAGGSLRLSCAASGSTFATNTMGWYRQAPGKERELVARITSSDGSTTYADSVKGRFTISRDNAKNTDYLQMNSLKPEDTAVYYCAAAYGRRWGYDYWGQGTQVTVSS” the “polyreactivity (PSR sort gate)” value was “low polyreactivity”.
For “QVQLVESGGGLVQAGGSLRLSCAASGSTFQFYAMGWYRQAPGKERELVAAIRSSDDSTYYADSVKGRFTSSRDNAKNTVYLQMNSLKPEDTAVYYCAAVQDYYGVWYDYWGQGTQVTVSS”, the “polyreactivity (PSR sort gate)” value was “high polyreactivity”.
For “QVQLVESGGGLVQAGGSLRLSCAASGSIFVTNGMGWYRQAPGKERELVAVISWGGGNTYYADSVKGRFTISRDNAKNTVYLLMNNLKPEDTAVYYCAVELYWDYYFTYGYWGKGTQVTVSS”, the “polyreactivity (PSR sort gate)” value was “low polyreactivity”.
In the case of “QVQLVESGGGLVQAGGSLRLSCAASGRTFVSNAMGWYRQAPGKERELVAAINSGGSTTYADSVKGRFTISRDNAKNTVYLKMNSLIPEDTAVYYFARRSRYSKGYDYWGQGTQVTVSS”, the “polyreactivity (PSR sort gate)” value is reported as “low polyreactivity”.
With “QVQLVESGGGLVQAGGSLRLSCAASGFTFGRYAMGWYRQAPGKERELVAAISFSGGRTYYADSVKGRFTISRDNAKNTVYLQMNSLKPEDTAVYYCAARRRQEHVGRSSYARYDYWGQGTQVTVSS” the “polyreactivity (PSR sort gate)” value was “high polyreactivity”.
For “EVQLVESGGGLVQPGGSLRLSCASSGYIYRRYRMGRYRQAPGKGREFVAAISGGSSTNYADSVKGRFTISRDNSKNTLYLQMKSLRAEDTAVYYCEGYKIDSDPRVYWGQGTQVTVSS”, the “polyreactivity (PSR sort gate)” value was “low polyreactivity”.
For “QVQLVESGGGLVQAGGSLRLSCAASGSIFGLYAMGWYRQAPGKERELVAAINQSGGSTSYADSVKGRFTISRDNAKNTVYLQMNSLKPEDTAVYYCNRVRLNSEGFDYWGQGTQVTVSS”, the “polyreactivity (PSR sort gate)” value was “low polyreactivity”.
For “QVNLVESGGGLVQAGGSLRLSCAASGLTFARNAMGWYSQAPGKERELVASITSVGRTNYADSVKGRFTISRDNAKNTVYLEMNSLKPEDTAVYFCGAKPSWHGVYYWGQGTQVTVSS”, the “polyreactivity (PSR sort gate)” value was “low polyreactivity”.
In the case of “QVQLVESGGGVVQAGGSLRLSCAASGSTFRYNARGWYRQAPGKEREFVAAITTSGVRTYYADSVKGRFTISRDNAKNTVYLQMNSLKPEDTAVYYCARRTPGTRWNYDYWGQGTQVTVSS”, the “polyreactivity (PSR sort gate)” value is reported as “high polyreactivity”.
In the case of “QVQLVESGGGLVQAGGSLRLSCAASGRIFATYAMGWSRQAPGKERELVAAISDGGGITYYADSVKGRFTISRDNAKNTVYLQMNSLKPDDTAVYYCARTYARYNFGYWGQGTQVTVSS”, the “polyreactivity (PSR sort gate)” value is reported as “low polyreactivity”.
For “QVQLVESGGGLVQAGGSLRLSCAASGRTFWSYAMGWYRQAPGKERELVAAINSSGDSTYYADSVKGRFTISRDNAKNTVYLQMNSLKPEDTAVYYCAADGGLLAGSDATVRMDYWGQGTQVTVSS”, the “polyreactivity (PSR sort gate)” value was “low polyreactivity”.
With “QVQLVESGGGIVQAGGSLRLSCAASGRIFGGNAMGWYRQAPGKERELVADISYGGGSTNYADSVKGRFTISRDNAKNTVYLQMNSLKPVDTAVYYCARDAWNTDGAYIGGDYDYWGQGTQVNVSS” the “polyreactivity (PSR sort gate)” value was “low polyreactivity”.
With “QVQLVESGGGLVQAGGSLRLSFAASGLIFPSYTMGWYRQAPGNYGELVAGINSGGSTNYAESVMGRFTISRDIAKNTDYLQMNSQKAEHTAVYYCAKDNNYYWYVSPRDYWGQGTQVTVSS” the “polyreactivity (PSR sort gate)” value was “low polyreactivity”.
In the case of “QVQLVESGGGLVQAGVILRLSCAASGLIFGLYAMGWYRQAPGKERELVAAISYRTDSTYADSVKGRFTISRDNAKNTVYLQMNSLKPEDTAVYYCAADLRVSVRYYYWGQGTQVTVSS”, the “polyreactivity (PSR sort gate)” value is reported as “low polyreactivity”.
With “QVQLEESGGGLVQAGGSLRLSCAASGSTYYYYAMGWYRQAPGKERELVAAISRSGITYYADSVKGRFTISRDNAKNTVYLQMNSLKPEDTAVYYCAAGRRFDQSMYYWGQGTQVTVSS” the “polyreactivity (PSR sort gate)” value was “high polyreactivity”.
For “QVQLVESGGGLVQAGGSLRLSCAASGITIVNYVMGWYRQPPGKERELVAAISIGGGTYYADSVKGRFTISRDNAKNTVYLQMNSLKPEDTAVYYWNASYGGLSFYIGVYDTGYDYWGQGTQVTVSS”, the “polyreactivity (PSR sort gate)” value was “low polyreactivity”.
In the case of “QVQLEESGGGLVQAGGSLRLSFAASGRIFRRYAMGWYRQAPVKERELVAAISSRGGRTYYADSVKGRFTISRDNAKNTVYLQMNSLKPDDTAVYYCAAYYFFTDTYGPYEYWGQGTQVTVSS”, the “polyreactivity (PSR sort gate)” value is reported as “high polyreactivity”.
For “QVQLVESGGRLVQAGGSLRLSCAASGFIFAYYSMGWYRKAPGKERELVAAISQSGTSTYYADSLKGRFTISRAKAKNTVYLQMNSLKPVDTAVYYCNAELRDLEYDYWGQGTQVTVSS”, the “polyreactivity (PSR sort gate)” value was “low polyreactivity”.
